pKd: −log10 of the molar value.
Assays:
Experiment in all cases: IEDB peptide-MHC binding, purified MHC/direct/fluorescence; filed as Kd, often an IC50 or EC50 that approximates it; ≥ and ≤ were set here for values at or beyond the usual limits of such assays
Details in all cases: source organism: West Nile virus
HLA-B*40:01 = biological target: HLA-B*40:01
HLA-B*15:01 = biological target: HLA-B*15:01
HLA-A*26:01 = biological target: HLA-A*26:01
HLA-A*24:03 = biological target: HLA-A*24:03
HLA-A*02:01 = biological target: HLA-A*02:01
HLA-B*08:01 = biological target: HLA-B*08:01
HLA-B*39:01 = biological target: HLA-B*39:01
HLA-B*07:02 = biological target: HLA-B*07:02
HLA-A*03:01 = biological target: HLA-A*03:01
HLA-B*27:05 = biological target: HLA-B*27:05
HLA-B*58:01 = biological target: HLA-B*58:01
HLA-A*01:01 = biological target: HLA-A*01:01

Q: With AEVEEHRTV as the sequence, how does the pKd (HLA-B*40:01) read?
A: 6.89

Q: How did the pKd (HLA-B*15:01) turn out when AMFEEQNQW was run?
A: 7.77

Q: How did the pKd (HLA-A*26:01) turn out when DTITNVTTM was run?
A: 8.40

Q: How did the pKd (HLA-A*26:01) turn out when ETTNWLWAF was run?
A: 8.70

Q: ETTNWLWTF was tested. Which pKd (HLA-A*26:01) did it give?
A: 8.30

Q: How did the pKd (HLA-A*26:01) turn out when EVMTAVGLM was run?
A: 8.30

Q: EYVGKTVWF was tested. Which pKd (HLA-A*24:03) did it give?
A: 7.59

Q: FCIKVLCPY was tested. Which pKd (HLA-A*26:01) did it give?
A: 6.50

Q: With FLAVGGVLL as the sequence, how does the pKd (HLA-A*02:01) read?
A: 8.52

Q: How did the pKd (HLA-B*08:01) turn out when FTRYRKEAI was run?
A: 7.41

Q: FVDVGVSAL was tested. Which pKd (HLA-B*39:01) did it give?
A: 7.28

Q: With GGRAHRMAL as the sequence, how does the pKd (HLA-B*07:02) read?
A: 7.20

Q: With GLYKSAPRR as the sequence, how does the pKd (HLA-A*03:01) read?
A: 7.43

Q: With GMSWITQGL as the sequence, how does the pKd (HLA-A*02:01) read?
A: ≥ 9.00

Q: With GRGPIRFVL as the sequence, how does the pKd (HLA-B*39:01) read?
A: 6.79

Q: With GRLVTVNPF as the sequence, how does the pKd (HLA-B*27:05) read?
A: 7.12

Q: GRMEKKTWK was tested. Which pKd (HLA-B*27:05) did it give?
A: 6.99

Q: With GSRAIWFMW as the sequence, how does the pKd (HLA-B*58:01) read?
A: 7.06

Q: With GVIMPNGSY as the sequence, how does the pKd (HLA-B*15:01) read?
A: 7.54

Q: GYISTRVEL was tested. Which pKd (HLA-A*24:03) did it give?
A: 7.35

Q: HSRRSRRSL was tested. Which pKd (HLA-B*07:02) did it give?
A: 7.33

Q: HTTKGAALM was tested. Which pKd (HLA-A*26:01) did it give?
A: 7.64

Q: How did the pKd (HLA-A*02:01) turn out when ILLWEIPDV was run?
A: ≥ 9.00

Q: With ILRNPGYAL as the sequence, how does the pKd (HLA-B*08:01) read?
A: 6.32

Q: IPTAAGKNL was tested. Which pKd (HLA-B*07:02) did it give?
A: 6.82

Q: ISGKSTDMW was tested. Which pKd (HLA-B*58:01) did it give?
A: 7.04

Q: How did the pKd (HLA-A*01:01) turn out when ITYTDVLRY was run?
A: 8.52

Q: KENGVDLSV was tested. Which pKd (HLA-B*40:01) did it give?
A: 8.52

Q: How did the pKd (HLA-B*08:01) turn out when KIRNRIERL was run?
A: 6.60

Q: KSFLVHREW was tested. Which pKd (HLA-B*58:01) did it give?
A: 7.96

Q: How did the pKd (HLA-B*58:01) turn out when KSYAQMWLL was run?
A: 8.10

Q: KVAAAGVSY was tested. Which pKd (HLA-B*15:01) did it give?
A: 6.78

Q: With LAALGDTAW as the sequence, how does the pKd (HLA-B*58:01) read?
A: 7.18

Q: LAVSAYTPW was tested. Which pKd (HLA-B*58:01) did it give?
A: 7.96

Q: LLLLVAPAY was tested. Which pKd (HLA-B*15:01) did it give?
A: 7.06

Q: LLVAPAYSF was tested. Which pKd (HLA-B*15:01) did it give?
A: 6.86

Q: How did the pKd (HLA-B*15:01) turn out when LMNDPGAPW was run?
A: 7.40

Q: How did the pKd (HLA-B*27:05) turn out when LRWLVERRF was run?
A: 7.01

Q: How did the pKd (HLA-A*03:01) turn out when LTYRHKVVK was run?
A: 7.03

Q: With LYAVTTAVL as the sequence, how does the pKd (HLA-A*24:03) read?
A: 8.10

Q: MLRKKQITV was tested. Which pKd (HLA-B*08:01) did it give?
A: 7.46

Q: How did the pKd (HLA-A*01:01) turn out when MTKEEFTRY was run?
A: 6.61

Q: How did the pKd (HLA-A*26:01) turn out when MTRGLLGSY was run?
A: 8.10

Q: With MVGVGSLVK as the sequence, how does the pKd (HLA-A*03:01) read?
A: 6.42

Q: NEAKVLELL was tested. Which pKd (HLA-B*40:01) did it give?
A: 7.55

Q: With NEVEVITKL as the sequence, how does the pKd (HLA-B*40:01) read?
A: 7.10

Q: With QEGALHQAL as the sequence, how does the pKd (HLA-B*40:01) read?
A: 7.85

Q: QPAFMVASF was tested. Which pKd (HLA-B*07:02) did it give?
A: 7.15

Q: QTDNQLAVF was tested. Which pKd (HLA-A*01:01) did it give?
A: 6.77

Q: How did the pKd (HLA-B*58:01) turn out when RAWNSGYEW was run?
A: 7.80

Q: REDIWCGSL was tested. Which pKd (HLA-B*40:01) did it give?
A: 8.15

Q: How did the pKd (HLA-B*40:01) turn out when REHSGNEIV was run?
A: ≥ 9.00

Q: RESFGVESF was tested. Which pKd (HLA-B*40:01) did it give?
A: ≥ 9.00

Q: REWFMDLNL was tested. Which pKd (HLA-B*40:01) did it give?
A: 8.05

Q: With RFVLALLAF as the sequence, how does the pKd (HLA-A*24:03) read?
A: 6.75

Q: With RLARAIIEL as the sequence, how does the pKd (HLA-A*02:01) read?
A: 8.52

Q: With RPAADGKTV as the sequence, how does the pKd (HLA-B*07:02) read?
A: 7.01

Q: How did the pKd (HLA-B*07:02) turn out when RPAVGGKTV was run?
A: 7.44

Q: With RRFLEPVGK as the sequence, how does the pKd (HLA-B*27:05) read?
A: 7.30

Q: How did the pKd (HLA-B*27:05) turn out when RRLAATTEK was run?
A: 7.43

Q: RRSRRSLTV was tested. Which pKd (HLA-B*27:05) did it give?
A: 6.41

Q: How did the pKd (HLA-B*27:05) turn out when RRWCFDGPR was run?
A: 7.96

Q: With RRYGGGLVR as the sequence, how does the pKd (HLA-B*27:05) read?
A: 7.21

Q: How did the pKd (HLA-B*07:02) turn out when RVIDSRKSV was run?
A: 7.01

Q: RVLEMVEDW was tested. Which pKd (HLA-B*58:01) did it give?
A: 8.40

Q: How did the pKd (HLA-B*07:02) turn out when RVYSDHQAL was run?
A: 6.69

Q: RYLVKTESW was tested. Which pKd (HLA-A*24:03) did it give?
A: 8.40

Q: SLFGGMSWI was tested. Which pKd (HLA-A*02:01) did it give?
A: ≥ 9.00

Q: SYHDRRWCF was tested. Which pKd (HLA-A*24:03) did it give?
A: 8.05

Q: With SYTLKLGEY as the sequence, how does the pKd (HLA-A*24:03) read?
A: 6.84

Q: How did the pKd (HLA-A*02:01) turn out when TLARGFPFV was run?
A: 8.52

Q: How did the pKd (HLA-B*39:01) turn out when TRAVGKPLL was run?
A: 6.85

Q: TVSPSAPTY was tested. Which pKd (HLA-B*15:01) did it give?
A: 7.17

Q: TYGVCAKAF was tested. Which pKd (HLA-A*24:03) did it give?
A: 7.89

Q: VEGLGLQKL was tested. Which pKd (HLA-B*40:01) did it give?
A: 6.64

Q: With VIQLNRKSY as the sequence, how does the pKd (HLA-B*15:01) read?
A: 6.98

Q: With VLCPYMPKV as the sequence, how does the pKd (HLA-A*02:01) read?
A: 7.68

Q: How did the pKd (HLA-A*03:01) turn out when VLRKRWTAK was run?
A: 7.37

Q: VLSLIGLKR was tested. Which pKd (HLA-A*03:01) did it give?
A: 6.32

Q: VLWDTPSPK was tested. Which pKd (HLA-A*03:01) did it give?
A: 6.93

Q: VSRLEHQMW was tested. Which pKd (HLA-B*58:01) did it give?
A: 7.25

Q: VVEKQSGLY was tested. Which pKd (HLA-A*01:01) did it give?
A: 8.22

Q: How did the pKd (HLA-B*40:01) turn out when WEALDTMYV was run?
A: 7.57

Q: How did the pKd (HLA-A*24:03) turn out when WFMWLGARF was run?
A: 8.00

Q: How did the pKd (HLA-A*24:03) turn out when WMILRAISF was run?
A: 6.92

Q: WYDWQQVPF was tested. Which pKd (HLA-A*24:03) did it give?
A: 8.15

Q: With YQPEREKVY as the sequence, how does the pKd (HLA-B*15:01) read?
A: 7.10

Q: With YTMDGEYRL as the sequence, how does the pKd (HLA-B*39:01) read?
A: 6.81

Reference: the Immune Epitope Database (IEDB)
